Ends that are not written are not given here.

Test [1] has as its target T1, human GPCR142 (human, UniProt Q8TDU9 1-374). The experiment in a line: competition with 100 pM [125I]-relaxin-3, COS-7 membranes with human GPCR142.
A further test concerns the target T2, human LGR8 (human, UniProt Q8WXD0 1-754).
T2 construct: whole, on cells; also called LGRB
The test is described as follows: competition with 100 pM [125I]-INSL3, live COS-7 cells expressing human LGR8; ND denotes no activity was detected.

The target of a further test is T3, human LGR7 (human, UniProt Q9HBX9 1-757).
T3 construct: whole, on cells
T3 sequence (looked up): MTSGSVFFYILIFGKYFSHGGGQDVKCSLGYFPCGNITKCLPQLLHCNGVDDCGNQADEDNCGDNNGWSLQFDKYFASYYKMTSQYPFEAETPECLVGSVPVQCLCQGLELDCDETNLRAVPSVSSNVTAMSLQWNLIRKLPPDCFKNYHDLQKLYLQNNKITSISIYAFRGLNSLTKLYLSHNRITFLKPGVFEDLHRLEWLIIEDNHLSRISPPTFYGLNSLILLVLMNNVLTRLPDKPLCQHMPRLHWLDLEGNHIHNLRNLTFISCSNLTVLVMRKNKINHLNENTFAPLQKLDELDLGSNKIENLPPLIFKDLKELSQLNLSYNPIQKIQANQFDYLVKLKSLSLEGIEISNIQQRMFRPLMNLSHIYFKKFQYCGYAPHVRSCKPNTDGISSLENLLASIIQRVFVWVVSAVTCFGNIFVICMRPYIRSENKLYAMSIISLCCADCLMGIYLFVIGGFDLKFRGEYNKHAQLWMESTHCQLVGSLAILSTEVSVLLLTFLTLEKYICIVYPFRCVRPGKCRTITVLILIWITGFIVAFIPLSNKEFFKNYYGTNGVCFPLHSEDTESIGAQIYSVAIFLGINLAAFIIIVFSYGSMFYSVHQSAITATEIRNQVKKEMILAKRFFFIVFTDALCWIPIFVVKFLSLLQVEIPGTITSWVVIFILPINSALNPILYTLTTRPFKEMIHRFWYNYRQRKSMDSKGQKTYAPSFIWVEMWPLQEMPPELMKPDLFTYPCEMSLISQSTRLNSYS
The test is described as follows: competition with 100 pM [125I]-relaxin-3, live COS-7 cells expressing human LGR7; ND denotes no activity was detected.

Test [2] concerns the target T4, human GPCR135 (human, UniProt Q9NSD7 1-469).
T4 construct: also called SALPR
T4 sequence: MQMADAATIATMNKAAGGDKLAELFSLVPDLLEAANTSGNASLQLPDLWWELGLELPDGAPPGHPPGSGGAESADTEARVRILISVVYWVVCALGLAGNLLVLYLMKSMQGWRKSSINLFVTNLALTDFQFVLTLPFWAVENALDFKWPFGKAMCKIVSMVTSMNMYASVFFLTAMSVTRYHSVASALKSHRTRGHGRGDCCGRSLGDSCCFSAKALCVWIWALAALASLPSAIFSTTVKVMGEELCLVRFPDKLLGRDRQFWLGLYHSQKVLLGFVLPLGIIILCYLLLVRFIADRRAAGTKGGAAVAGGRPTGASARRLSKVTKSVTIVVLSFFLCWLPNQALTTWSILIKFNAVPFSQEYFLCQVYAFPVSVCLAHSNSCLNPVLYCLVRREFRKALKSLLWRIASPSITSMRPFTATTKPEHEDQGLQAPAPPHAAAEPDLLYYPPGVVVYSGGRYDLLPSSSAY
The experiment in a line: competition with 100 pM [125I]-relaxin-3, COS-7 membranes with human GPCR135.

Test [3] addresses T4, human GPCR135. The experiment in a line: cell-based or functional assay.
For test [4], the target named is T1, human GPCR142. The test is described as follows: cell-based or functional assay.

T1 sequence (Q8TDU9 whole entry L329S, form in doubt): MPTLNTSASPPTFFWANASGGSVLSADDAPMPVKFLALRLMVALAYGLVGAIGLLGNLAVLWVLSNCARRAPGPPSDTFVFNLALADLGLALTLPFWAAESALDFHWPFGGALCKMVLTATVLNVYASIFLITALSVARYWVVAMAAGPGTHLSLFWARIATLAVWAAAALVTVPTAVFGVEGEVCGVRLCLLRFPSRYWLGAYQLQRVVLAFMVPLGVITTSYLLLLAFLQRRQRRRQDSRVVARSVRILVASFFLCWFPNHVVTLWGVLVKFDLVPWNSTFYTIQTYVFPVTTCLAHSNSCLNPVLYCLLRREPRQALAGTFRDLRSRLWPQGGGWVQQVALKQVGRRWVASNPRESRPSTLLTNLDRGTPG
T2 sequence (Q8WXD0 whole entry): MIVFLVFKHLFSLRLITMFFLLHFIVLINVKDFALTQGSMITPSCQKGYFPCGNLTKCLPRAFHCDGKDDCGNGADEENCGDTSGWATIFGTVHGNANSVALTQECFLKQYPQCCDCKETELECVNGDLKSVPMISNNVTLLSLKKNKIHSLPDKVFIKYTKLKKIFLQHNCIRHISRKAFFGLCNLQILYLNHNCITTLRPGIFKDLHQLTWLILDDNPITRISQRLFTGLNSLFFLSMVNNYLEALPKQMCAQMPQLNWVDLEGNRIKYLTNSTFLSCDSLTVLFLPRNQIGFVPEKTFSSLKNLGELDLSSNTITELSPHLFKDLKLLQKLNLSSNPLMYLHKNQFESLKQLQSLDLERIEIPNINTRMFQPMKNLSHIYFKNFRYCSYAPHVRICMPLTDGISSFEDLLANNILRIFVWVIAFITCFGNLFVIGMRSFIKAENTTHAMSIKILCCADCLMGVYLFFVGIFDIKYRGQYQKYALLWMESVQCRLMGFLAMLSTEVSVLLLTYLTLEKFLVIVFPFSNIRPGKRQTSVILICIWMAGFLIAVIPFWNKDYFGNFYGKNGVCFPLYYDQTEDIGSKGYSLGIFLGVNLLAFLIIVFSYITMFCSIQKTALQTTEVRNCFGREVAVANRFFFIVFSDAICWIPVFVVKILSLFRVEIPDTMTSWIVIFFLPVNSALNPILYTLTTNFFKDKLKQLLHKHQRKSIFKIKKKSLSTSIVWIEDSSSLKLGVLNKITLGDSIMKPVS

B1: Relaxin-3/INSL4 (R3/I4) chimeric polypeptide (ligand, human)
chain 1: RAAPYGVRLCGREFIRAVIFTCGGSRW
chain 2: FDPFCCEVICDDGTSVKLC
modifications: disulfide (positions not given here)
notes: domain: A-chain; Two chains joined by disulfide bonds; FLAG tag removed
As a reminder, the IC50 is the midpoint of a concentration-inhibition curve. Low values mean greater potency in that assay, high ones weaker potency in that assay. As to B1, the IC50 with human GPCR142 [1] and in the test with human GPCR135 [2] was greater than 1000 nM each time. The binding result with human LGR8 is “no binding”; in the test with human LGR7, “no binding (tested: 1 µM)”. Moreover, the “EC50, inhibition of forskolin stimulated β-galactosidase expression” value with human GPCR135 [3] and in the test with human GPCR142 [4] was greater than 1000 nM in each case.
